According to PMC7042329, “AMPK-dependent activation of the Cyclin Y/CDK16 complex controls autophagy” (Nature Communications, 2020):

Molecular target: T1, Cyclin Y-Flag (human, UniProt Q8ND76-1 1-341)
T1 construct: Cyclin Y, human, isoform 1 (CCNYiso1 cDNA clone in pcDNA3-FLAG); In cells partly phosphorylated at S326 (more after AICAR/A769662) and at S336; also called Cyclin Y-Flag-wt; wild-type Cyclin Y; source: HeLa or U2OS, transfected, in lysate
Assay: co-IP; HeLa cells transfected with Cyclin Y-Flag, with or without GFP-tagged CDK; with or without 0.5 mM AICAR/50 µM A769662 for 1 h; lysate in Frackelton buffer, anti-FLAG M2 beads 2 h at 4 °C, three washes, immunoblot
Conditions: partners not purified

T1 sequence (Q8ND76 whole entry, canonical isoform): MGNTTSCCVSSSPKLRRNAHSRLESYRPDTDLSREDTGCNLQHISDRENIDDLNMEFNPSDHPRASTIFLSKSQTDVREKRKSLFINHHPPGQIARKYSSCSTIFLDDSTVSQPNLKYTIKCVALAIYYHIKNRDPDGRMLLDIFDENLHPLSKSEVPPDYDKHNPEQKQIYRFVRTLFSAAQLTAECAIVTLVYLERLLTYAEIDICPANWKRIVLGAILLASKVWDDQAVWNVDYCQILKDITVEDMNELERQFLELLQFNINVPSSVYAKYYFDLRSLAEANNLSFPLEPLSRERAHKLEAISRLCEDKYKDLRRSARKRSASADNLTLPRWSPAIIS

B1: GFP-CDK16 (enzyme)
chain: not shown
notes: Cyclin-dependent kinase 16 (CDK16), human, isoform 1; also called GFP-CDK16-wt; PCTAIRE1; source: HeLa, transfected, in lysate
For B1, the “fold change of co-immunoprecipitated CDK16 with AICAR/A769662 against untreated” value was 2 fold.
